Experimental findings from patent publication US20060100138 are described below.

Data set [1] relates to Synthetic human type I collagen.
Data set [2] has as its system Synthetic human type III collagen.

Chain of MMP-8 (collagenase 2, neutrophil collagenase) (chain, as listed by the source): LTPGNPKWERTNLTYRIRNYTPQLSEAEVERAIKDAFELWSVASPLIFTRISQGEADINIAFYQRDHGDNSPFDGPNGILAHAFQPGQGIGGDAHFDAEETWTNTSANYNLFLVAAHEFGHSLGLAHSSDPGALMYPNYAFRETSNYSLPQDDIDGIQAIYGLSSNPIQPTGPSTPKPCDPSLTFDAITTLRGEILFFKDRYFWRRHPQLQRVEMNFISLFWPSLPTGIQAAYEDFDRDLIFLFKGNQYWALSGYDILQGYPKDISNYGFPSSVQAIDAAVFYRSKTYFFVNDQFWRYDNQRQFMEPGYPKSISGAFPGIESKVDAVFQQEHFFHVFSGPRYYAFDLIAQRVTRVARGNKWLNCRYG
Chain of Synthetic human type III collagen (chain, as listed by the source): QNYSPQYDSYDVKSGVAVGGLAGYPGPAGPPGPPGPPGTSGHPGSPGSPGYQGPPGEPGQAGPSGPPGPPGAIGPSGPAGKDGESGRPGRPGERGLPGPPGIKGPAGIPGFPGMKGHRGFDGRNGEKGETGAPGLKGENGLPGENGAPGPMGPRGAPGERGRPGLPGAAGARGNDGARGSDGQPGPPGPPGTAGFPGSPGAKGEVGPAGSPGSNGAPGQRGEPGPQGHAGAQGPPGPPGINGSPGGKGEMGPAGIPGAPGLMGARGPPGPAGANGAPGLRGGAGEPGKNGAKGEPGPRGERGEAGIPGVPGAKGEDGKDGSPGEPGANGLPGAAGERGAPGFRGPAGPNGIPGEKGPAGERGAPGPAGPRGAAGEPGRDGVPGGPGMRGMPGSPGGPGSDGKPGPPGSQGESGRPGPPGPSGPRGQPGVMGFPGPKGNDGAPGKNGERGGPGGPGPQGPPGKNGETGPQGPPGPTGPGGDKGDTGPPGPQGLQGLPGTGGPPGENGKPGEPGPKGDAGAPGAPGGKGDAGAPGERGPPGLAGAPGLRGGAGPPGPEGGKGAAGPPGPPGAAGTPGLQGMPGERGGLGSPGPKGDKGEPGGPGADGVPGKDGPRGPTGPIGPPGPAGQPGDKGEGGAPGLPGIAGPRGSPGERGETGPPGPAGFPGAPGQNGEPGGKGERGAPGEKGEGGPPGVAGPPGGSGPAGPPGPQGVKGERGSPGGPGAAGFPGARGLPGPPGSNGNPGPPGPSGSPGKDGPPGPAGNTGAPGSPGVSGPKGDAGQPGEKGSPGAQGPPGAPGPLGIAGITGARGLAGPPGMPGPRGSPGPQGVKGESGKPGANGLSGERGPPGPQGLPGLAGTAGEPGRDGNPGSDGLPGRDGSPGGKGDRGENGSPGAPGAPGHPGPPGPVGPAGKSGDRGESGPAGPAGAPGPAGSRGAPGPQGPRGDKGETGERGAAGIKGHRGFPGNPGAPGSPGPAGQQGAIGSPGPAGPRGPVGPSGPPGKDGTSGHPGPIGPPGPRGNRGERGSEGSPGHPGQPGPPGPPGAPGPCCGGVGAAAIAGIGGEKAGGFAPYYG
Chain of Synthetic human type I collagen (chain, as listed by the source, chain 1 of 2): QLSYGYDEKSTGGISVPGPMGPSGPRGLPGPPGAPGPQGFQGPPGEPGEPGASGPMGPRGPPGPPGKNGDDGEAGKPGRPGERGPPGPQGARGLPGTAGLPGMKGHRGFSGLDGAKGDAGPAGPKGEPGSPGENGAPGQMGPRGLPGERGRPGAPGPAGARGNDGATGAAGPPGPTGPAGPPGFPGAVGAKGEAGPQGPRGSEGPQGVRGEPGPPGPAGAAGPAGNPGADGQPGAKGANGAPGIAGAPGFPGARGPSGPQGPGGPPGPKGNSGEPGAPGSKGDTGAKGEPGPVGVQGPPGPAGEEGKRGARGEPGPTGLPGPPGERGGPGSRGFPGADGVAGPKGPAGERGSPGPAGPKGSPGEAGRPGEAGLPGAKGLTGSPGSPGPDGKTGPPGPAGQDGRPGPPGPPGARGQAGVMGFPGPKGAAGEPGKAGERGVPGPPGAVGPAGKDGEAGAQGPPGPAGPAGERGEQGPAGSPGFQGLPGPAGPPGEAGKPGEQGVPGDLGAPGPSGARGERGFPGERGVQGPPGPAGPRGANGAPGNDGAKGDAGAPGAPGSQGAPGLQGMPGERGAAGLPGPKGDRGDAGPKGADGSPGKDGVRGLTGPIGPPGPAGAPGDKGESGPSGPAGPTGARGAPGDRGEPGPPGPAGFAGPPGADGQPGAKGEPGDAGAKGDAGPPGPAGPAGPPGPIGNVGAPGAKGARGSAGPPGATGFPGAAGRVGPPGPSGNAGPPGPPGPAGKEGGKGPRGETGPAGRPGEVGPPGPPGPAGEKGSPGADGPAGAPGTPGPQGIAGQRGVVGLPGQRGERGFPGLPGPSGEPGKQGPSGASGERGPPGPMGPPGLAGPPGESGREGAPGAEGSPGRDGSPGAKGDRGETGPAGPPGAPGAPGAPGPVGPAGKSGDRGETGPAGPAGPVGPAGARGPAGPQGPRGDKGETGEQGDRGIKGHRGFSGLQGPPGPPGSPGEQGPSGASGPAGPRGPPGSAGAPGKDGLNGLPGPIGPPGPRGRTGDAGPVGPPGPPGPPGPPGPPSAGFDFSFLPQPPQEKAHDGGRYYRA
Chain of Synthetic human type I collagen (chain, as listed by the source, chain 2 of 2): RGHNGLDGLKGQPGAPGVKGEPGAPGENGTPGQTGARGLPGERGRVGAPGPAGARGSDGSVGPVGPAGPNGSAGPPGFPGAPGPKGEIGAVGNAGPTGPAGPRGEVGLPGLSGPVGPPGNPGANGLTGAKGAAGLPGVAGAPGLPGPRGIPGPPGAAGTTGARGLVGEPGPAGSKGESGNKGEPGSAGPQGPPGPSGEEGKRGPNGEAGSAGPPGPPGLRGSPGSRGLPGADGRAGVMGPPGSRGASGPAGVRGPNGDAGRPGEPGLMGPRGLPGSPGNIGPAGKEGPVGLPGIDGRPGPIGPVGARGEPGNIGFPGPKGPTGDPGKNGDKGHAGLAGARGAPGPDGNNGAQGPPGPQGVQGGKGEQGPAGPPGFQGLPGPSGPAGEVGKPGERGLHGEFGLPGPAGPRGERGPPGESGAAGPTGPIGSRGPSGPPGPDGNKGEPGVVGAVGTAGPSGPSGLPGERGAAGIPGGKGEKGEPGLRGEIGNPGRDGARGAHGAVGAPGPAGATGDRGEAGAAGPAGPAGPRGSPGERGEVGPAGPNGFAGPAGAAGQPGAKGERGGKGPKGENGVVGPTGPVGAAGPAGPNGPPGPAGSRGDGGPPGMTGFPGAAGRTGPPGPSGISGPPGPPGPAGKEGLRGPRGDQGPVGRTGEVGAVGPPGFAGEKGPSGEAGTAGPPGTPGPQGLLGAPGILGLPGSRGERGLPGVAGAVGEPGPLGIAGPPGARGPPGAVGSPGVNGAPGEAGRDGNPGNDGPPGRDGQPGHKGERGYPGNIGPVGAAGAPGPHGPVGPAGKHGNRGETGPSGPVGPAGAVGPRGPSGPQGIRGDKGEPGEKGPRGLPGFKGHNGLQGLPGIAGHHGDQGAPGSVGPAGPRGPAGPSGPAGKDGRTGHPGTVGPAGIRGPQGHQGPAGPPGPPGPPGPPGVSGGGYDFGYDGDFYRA

Take “MMP-8 (collagenase 2, neutrophil collagenase)”: the “cleavage of collagen (SDS-PAGE after 1, 2 and 7 days at 37 C)” value in data set [1] was “both synthetic human type I and type III collagen were cleaved by MMP-1 (FIG. 1A) and MMP-8 (FIG. 1B)”. In addition, in data set [2], the “cleavage of collagen (SDS-PAGE after 1, 2 and 7 days at 37 C)” value was “both synthetic human type I and type III collagen were cleaved by MMP-1 (FIG. 1A) and MMP-8 (FIG. 1B)”; the “extent of degradation of collagen (SDS-PAGE)” value is listed as “Synthetic human type III collagen was degraded by MMP-1 to a greater extent than by MMP-8”.
